Test results: PMC2133042
Where “and” joins values, the source holds several entries; their conditions need not be identical. Identical values can stand only once.

T1: KKFF (myc-tagged wild-type ERGIC-53) (human), P49257
T1 chain: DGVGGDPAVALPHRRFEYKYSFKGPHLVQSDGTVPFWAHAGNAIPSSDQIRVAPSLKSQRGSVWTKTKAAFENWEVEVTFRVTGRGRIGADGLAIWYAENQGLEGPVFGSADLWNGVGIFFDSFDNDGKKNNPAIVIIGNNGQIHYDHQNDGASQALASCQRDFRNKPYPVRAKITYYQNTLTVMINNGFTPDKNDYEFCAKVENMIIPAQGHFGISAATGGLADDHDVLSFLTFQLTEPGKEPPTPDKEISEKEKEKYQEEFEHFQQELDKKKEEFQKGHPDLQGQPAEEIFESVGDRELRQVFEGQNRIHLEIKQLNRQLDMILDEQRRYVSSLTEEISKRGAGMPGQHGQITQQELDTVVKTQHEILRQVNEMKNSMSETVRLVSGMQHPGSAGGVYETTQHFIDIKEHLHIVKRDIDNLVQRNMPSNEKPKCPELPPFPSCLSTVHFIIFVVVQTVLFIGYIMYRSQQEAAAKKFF


How the values were obtained:
[1] = target: KKAA construct (myc-tagged ERGIC-53 with its cytoplasmic tail mutated to R2A6KKAA) (human)
[2] = target: T1, KKFF (myc-tagged wild-type ERGIC-53) …; conditions: remark: other sources report otherwise

| stoichiometry N [1] | stoichiometry N [2] | Molecule |
| --- | --- | --- |
| 2 and 6 |  | KKAA construct (myc-tagged ERGIC-53 with its cytoplasmic tail mutated to R2A6KKAA) (natural protein) |
|  | 2 and 6 | KKFF (myc-tagged wild-type ERGIC-53), P49257 31-510 (natural protein) DGVGGDPAVALPHRRFEYKYSFKGPHLVQSDGTVPFWAHAGNAIPSSDQIRVAPSLKSQRGSVWTKTKAAFENWEVEVTFRVTGRGRIGADGLAIWYAENQGLEGPVFGSADLWNGVGIFFDSFDNDGKKNNPAIVIIGNNGQIHYDHQNDGASQALASCQRDFRNKPYPVRAKITYYQNTLTVMINNGFTPDKNDYEFCAKVENMIIPAQGHFGISAATGGLADDHDVLSFLTFQLTEPGKEPPTPDKEISEKEKEKYQEEFEHFQQELDKKKEEFQKGHPDLQGQPAEEIFESVGDRELRQVFEGQNRIHLEIKQLNRQLDMILDEQRRYVSSLTEEISKRGAGMPGQHGQITQQELDTVVKTQHEILRQVNEMKNSMSETVRLVSGMQHPGSAGGVYETTQHFIDIKEHLHIVKRDIDNLVQRNMPSNEKPKCPELPPFPSCLSTVHFIIFVVVQTVLFIGYIMYRSQQEAAAKKFF |
